In the supplement of paper PMC9112550, “Optimization of the antimicrobial peptide Bac7 by deep mutational scanning” (BMC Biology, 2022):

Test system: Escherichia coli TOP10
Assay: shrunken log2 fold change of peptide-encoding DNA abundance (4.5 h post-induction vs induction); higher = less antimicrobial activity (less host growth inhibition)
Conditions: time post-induction: 4.5 h; library: site-saturation at positions 5, 18, 19, 20
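Also: peptides expressed intracellularly from a pBAD plasmid library in pooled LB shake-flask culture, induced with 0.3% L-arabinose, DNA abundance read by NGS, three biological replicates, DESeq2 with apeglm shrinkage.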

Row | Sequence | shrunken log2 fold change
1 | RRIRDRPPRLPRPRPRPKAAPRP | 0.0214
2 | RRIRYRPPRLPRPRPRPNEVPRP | -0.00663
3 | RRIRQRPPRLPRPRPRPYQKPRP | -0.0335
4 | RRIRHRPPRLPRPRPRPDAMPRP | -0.00187
5 | RRIRVRPPRLPRPRPRPMCFPRP | -0.178
6 | RRIRWRPPRLPRPRPRPLKLPRP | -0.225
7 | RRIRGRPPRLPRPRPRPDLAPRP | 1.59
8 | RRIRKRPPRLPRPRPRPLSAPRP | 0.402
9 | RRIRNRPPRLPRPRPRPLEYPRP | -0.816
10 | RRIRIRPPRLPRPRPRPRAHPRP | -0.201
11 | RRIRARPPRLPRPRPRPWRWPRP | 0.451
12 | RRIRWRPPRLPRPRPRPVGIPRP | -0.198
13 | RRIRKRPPRLPRPRPRPNARPRP | 0.076
14 | RRIRPRPPRLPRPRPRPKPLPRP | 0.567
15 | RRIRNRPPRLPRPRPRPVWSPRP | 0.0637
16 | RRIRYRPPRLPRPRPRPEFAPRP | -0.167
17 | RRIRGRPPRLPRPRPRPIAMPRP | 0.401
18 | RRIRCRPPRLPRPRPRPTWIPRP | 0.24
19 | RRIRKRPPRLPRPRPRPSVYPRP | -0.0427
20 | RRIRMRPPRLPRPRPRPFYSPRP | -0.0137
21 | RRIRGRPPRLPRPRPRPFPSPRP | 0.142
22 | RRIRCRPPRLPRPRPRPLGDPRP | 1.87
23 | RRIRKRPPRLPRPRPRPPMHPRP | 0.636
24 | RRIRLRPPRLPRPRPRPLRIPRP | -0.031
25 | RRIRSRPPRLPRPRPRPSIIPRP | -0.253

Row | Sequence | shrunken log2 fold change
26 | RRIRPRPPRLPRPRPRPYLWPRP | -0.769
27 | RRIRWRPPRLPRPRPRPIEMPRP | 0.467
28 | RRIRARPPRLPRPRPRPMPVPRP | 0.0463
29 | RRIRTRPPRLPRPRPRPNKMPRP | 0.0425
30 | RRIRDRPPRLPRPRPRPLASPRP | 0.171
31 | RRIRERPPRLPRPRPRPFEQPRP | -0.126
32 | RRIRARPPRLPRPRPRPDTVPRP | -0.125
33 | RRIRKRPPRLPRPRPRPYDFPRP | 0.176
34 | RRIRARPPRLPRPRPRPITHPRP | -0.045
35 | RRIRFRPPRLPRPRPRPTTYPRP | -0.608
36 | RRIRFRPPRLPRPRPRPERSPRP | 0.0713
37 | RRIRRRPPRLPRPRPRPYKEPRP | -0.463
38 | RRIRWRPPRLPRPRPRPKCYPRP | -0.0376
39 | RRIRWRPPRLPRPRPRPCCFPRP | -0.0922
40 | RRIRNRPPRLPRPRPRPDLQPRP | -0.0156
41 | RRIRCRPPRLPRPRPRPACSPRP | -0.0823
42 | RRIRQRPPRLPRPRPRPMLMPRP | -0.0108
43 | RRIRYRPPRLPRPRPRPGCAPRP | -0.139
44 | RRIRHRPPRLPRPRPRPWFHPRP | -0.525
45 | RRIRGRPPRLPRPRPRPAHRPRP | 0.224
46 | RRIRNRPPRLPRPRPRPFTHPRP | -0.374
47 | RRIRERPPRLPRPRPRPHMSPRP | -0.27
48 | RRIRTRPPRLPRPRPRPRGIPRP | -0.0284
49 | RRIRARPPRLPRPRPRPMRCPRP | 0.162
50 | RRIRKRPPRLPRPRPRPAIEPRP | 0.018

Row | Sequence | shrunken log2 fold change
51 | RRIRKRPPRLPRPRPRPQLSPRP | -0.272
52 | RRIRNRPPRLPRPRPRPNWNPRP | -0.691
53 | RRIRCRPPRLPRPRPRPATTPRP | 0.151
54 | RRIRPRPPRLPRPRPRPGKTPRP | 0.294
55 | RRIRERPPRLPRPRPRPFNTPRP | -0.124
56 | RRIRERPPRLPRPRPRPWWMPRP | -0.436
57 | RRIRSRPPRLPRPRPRPCSVPRP | 0.044
58 | RRIRPRPPRLPRPRPRPLTMPRP | -0.186
59 | RRIRHRPPRLPRPRPRPIWKPRP | -0.0276
60 | RRIRRRPPRLPRPRPRPPPAPRP | 1.28
61 | RRIRARPPRLPRPRPRPFVWPRP | 0.204
62 | RRIRVRPPRLPRPRPRPDQTPRP | -0.002
63 | RRIRTRPPRLPRPRPRPARLPRP | 0.215
64 | RRIRDRPPRLPRPRPRPALIPRP | 0.145
65 | RRIRKRPPRLPRPRPRPQSHPRP | 0.353
66 | RRIRARPPRLPRPRPRPVIEPRP | 0.362
67 | RRIRPRPPRLPRPRPRPYNWPRP | -0.731
68 | RRIRWRPPRLPRPRPRPYSHPRP | -1.09
69 | RRIRLRPPRLPRPRPRPAVWPRP | 0.72
70 | RRIRSRPPRLPRPRPRPIRQPRP | -0.0752
71 | RRIRERPPRLPRPRPRPNPFPRP | 0.0226
72 | RRIRLRPPRLPRPRPRPPTRPRP | 0.677
73 | RRIRWRPPRLPRPRPRPNFAPRP | 0.29
74 | RRIRNRPPRLPRPRPRPRGVPRP | 0.195
75 | RRIRMRPPRLPRPRPRPYWHPRP | -0.305
